Source: patent publication US20080311034A1 (published 2008)

T1: recombinant human FcγRIIb (R&D Systems #1875-CD-050) (human, UniProt P31994 46-217, limits assumed)
T1 construct: Bought; also called CD32b; recombinant, soluble, human FcγRIIb
T1 sequence (looked up): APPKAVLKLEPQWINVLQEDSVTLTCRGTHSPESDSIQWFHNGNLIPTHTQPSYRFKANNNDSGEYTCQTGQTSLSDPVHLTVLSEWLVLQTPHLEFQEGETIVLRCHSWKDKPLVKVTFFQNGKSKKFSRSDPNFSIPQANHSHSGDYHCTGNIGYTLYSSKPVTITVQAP

T2: recombinant human His-tagged FcγRIIa (R&D Systems #1330-CD-050) (human, UniProt P12318 36-218, limits assumed)
T2 construct: Bought; also called CD32a; recombinant, soluble, human FcγRIIa
T2 sequence (looked up): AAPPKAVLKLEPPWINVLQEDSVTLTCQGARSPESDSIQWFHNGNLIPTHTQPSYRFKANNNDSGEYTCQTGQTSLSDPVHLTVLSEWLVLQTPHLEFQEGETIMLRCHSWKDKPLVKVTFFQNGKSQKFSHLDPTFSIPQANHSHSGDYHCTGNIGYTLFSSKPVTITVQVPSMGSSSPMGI

T3: recombinant polyhistidine tagged mouse FcγRII (R&D Systems) (mouse, UniProt P08101 40-217, limits assumed)
T3 construct: Bought; also called FcRII
T3 sequence (looked up): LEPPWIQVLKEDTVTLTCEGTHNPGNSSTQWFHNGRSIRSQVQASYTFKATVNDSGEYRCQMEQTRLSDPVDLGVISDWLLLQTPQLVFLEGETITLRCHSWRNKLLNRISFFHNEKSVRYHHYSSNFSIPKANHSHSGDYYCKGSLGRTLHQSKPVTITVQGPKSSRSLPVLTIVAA

T4: recombinant polyhistidine tagged mouse FcγRIII (R&D Systems) (mouse, UniProt P08508 31-215)
T4 construct: Bought
T4 sequence (looked up): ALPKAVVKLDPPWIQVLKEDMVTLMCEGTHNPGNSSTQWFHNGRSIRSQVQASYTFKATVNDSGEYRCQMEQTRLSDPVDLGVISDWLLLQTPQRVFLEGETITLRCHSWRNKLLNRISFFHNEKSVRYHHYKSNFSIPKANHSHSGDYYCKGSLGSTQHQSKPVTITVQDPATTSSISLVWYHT

T5: recombinant polyhistidine tagged mouse FcγRIV (R&D Systems) (mouse, UniProt A0A0B4J1G0 21-203)
T5 construct: Bought
T5 sequence: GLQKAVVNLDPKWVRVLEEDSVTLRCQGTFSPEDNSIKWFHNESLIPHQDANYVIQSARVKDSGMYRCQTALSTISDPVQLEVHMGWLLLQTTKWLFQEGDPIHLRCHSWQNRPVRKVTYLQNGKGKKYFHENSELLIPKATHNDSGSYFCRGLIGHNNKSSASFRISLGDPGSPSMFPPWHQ

T6: recombinant polyhistidine tagged mouse FcγRI (R&D Systems) (mouse, UniProt P26151 25-297)
T6 construct: Bought; also called murine FcγRI
T6 sequence (looked up): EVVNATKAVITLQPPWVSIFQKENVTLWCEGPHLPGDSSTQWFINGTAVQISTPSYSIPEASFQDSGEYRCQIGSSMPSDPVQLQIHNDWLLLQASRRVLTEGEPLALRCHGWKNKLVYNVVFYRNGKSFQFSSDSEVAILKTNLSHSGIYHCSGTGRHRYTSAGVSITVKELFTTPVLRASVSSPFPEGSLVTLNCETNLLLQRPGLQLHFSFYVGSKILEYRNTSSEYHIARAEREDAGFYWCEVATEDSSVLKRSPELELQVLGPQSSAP


Columns and labels:
[1] = target: T1, recombinant human FcγRIIb (R&D Systems …); assay: AlphaScreen, FcγRIIb on nickel acceptor beads
Description: (§1) FcγRIIa (CD32a) AlphaScreen—Nickel acceptor beads (Perkin Elmer #6760619C) were diluted 1:50 in assay buffer (PBS, pH 7.4, 4 mg/ml BSA, 0.01% Tween-20), and 27.5 μl were added to each well of a Nunc V-bottom polypropylene plate (VWR # 62409-108) (Powers G., Notebook 9006, pp. 169-175, 182-185). A 2.0 μg/ml solution of recombinant human His-tagged FcγRIIa (R&D Systems #1330-CD-050) was prepared in assay buffer and 27.5 μl added to each well of a separate Nunc V bottom polypropylene plate. Titrations of test Abs were prepared in the Nunc V bottom polypropylene plate starting at 30 μg/ml. A 2 μg/ml solution of biotinylated goat F(ab′)₂ anti-human IgG F(ab′)₂ (Jackson Immunoresearch #109-066-097) was prepared in assay buffer and 27.5 μl added to each well of another Nunc V bottom polypropylene plate. A 1:50 dilution of streptavidin donor beads (PerkinElmer # 6760002) was prepared in assay buffer and 27.5 μl added to each well of another Nunc V bottom polypropylene plate. A volume of 5 μl of each reagent was added to the corresponding quadrants of a low-volume, non-binding white 384-well plate (Corning # 3673) in the following order: acceptor beads, FcγRIIa, test Ab, biotinylated anti-human IgG F(ab′)₂, and streptavidin donor beads. The plates were incubated for 30 minutes with shaking and the O.D.s determined using an Envision plate reader.
FcγRIIb (CD32b) AlphaScreen—The assay was performed as described above for FcγRIIa except that FcγRIIa was replaced with FcγRIIb (R&D Systems #1875-CD-050).

[2] = target: T2, recombinant human His-tagged FcγRIIa …; assay: AlphaScreen, His-tagged FcγRIIa on nickel acceptor beads
Description: as §1

[3] = target: T3, recombinant polyhistidine tagged mouse …; assay: ELISA, His-tagged mouse receptor captured on copper-coated plate
Description: (§2) Commercially-available recombinant polyhistidine tagged mouse FcγRI, FcγRII, FcγRIII, and FcγRIV (R&D Systems) were diluted to 1 μg/ml in PBS and 100 μl/well was captured onto copper-coated plates (Pierce) overnight at 4° C. Plates were washed three times with wash buffer (0.15M NaCl, 0.02% Tween 20). Non-specific binding was blocked using 200 μl/well SuperBlock (Pierce) for 15 minutes at room temperature. Plates were washed three times as above. […] Plates were washed three times as above to remove unbound mAb. CNTO 860 variants that bound to plated receptors were detected using 100 μl/well HRP-labeled goat F(ab′)₂ anti-human IgG F(ab′)₂ (Jackson ImmunoResearch) diluted 1:5,000 in PBS incubated at room temperature for 1 hour. Plates were washed five times using wash buffer as above, and developed using 100 μl/well TMB Stable Stop substrate (Fitzgerald Industries) stopped with 0.5M HCl. Absorbance was detected at 450 nm.
(§3) All binding assays were in an ELISA format, with recombinant soluble receptor captured on coated EIA plates.

[4] = target: T4, recombinant polyhistidine tagged mouse …; assay: as above
Description: as §2, §3

[5] = target: T5, recombinant polyhistidine tagged mouse …; assay: as above
Description: as §2, §3

[6] = target: T6, recombinant polyhistidine tagged mouse …; assay: as above
Description: as §2, §3

concentration (ng/ml) required for an O.D. value of 200,000 [1] [ng/mL] | concentration (ng/ml) required for a set O.D. signal [2] [ng/mL] | ECOD1 (concentration required for an O.D. value of 1.0) [3] [ng/mL] | ECOD1 (concentration required for an O.D. value of 1.0) [4] [ng/mL] | ECOD1 (concentration required for an O.D. value of 1.0) [5] [ng/mL] | ECOD1 (concentration required for an O.D. value of 1.0) [6] [ng/mL] | Binder
165 | 97 | 4000 | 4000 | 60 | – | CHO-CNTO 860 WT (antibody, human IgG1, kappa, N-linked glycan at heavy chain Asn297 (CHO-type, highly fucosylated); not carried by the letters, Anti-human tissue factor human IgG1/kappa; transiently expressed in CHO cells (plasmids p4145/p4146; CHO Abs typically 95% fucosylated), purified by protein A; also called CNTO 860 WT from CHO cells; WT (CHO cell-derived); copies: 2 + 2) heavy: not shown light: DIQMTQSPSSLSASVGDRVTITCKASQDIRKYLNWYQQKPGKAPKLLIYYATSLADGVPSRFSGSGSGTDYTFTISSLQPEDIATYYCLQHGESPYTFGQGTKLEITRTVAAPSVFIFPPSDEQLKSGTASVVCLLNNFYPREAKVQWKVDNALQSGNSQESVTEQDSKDSTYSLSSTLTLSKADYEKHKVYACEVTHQGLSSPVTKSFNRGEC
10500 | 1500 | 3000 | 3000 | 7 | 10000 | YB2/0-CNTO 860 A330I/I332E (antibody, human IgG1, kappa, N-linked glycan at heavy chain Asn297 (YB2/0-type, low fucose); not carried by the letters, IgG1/kappa Fc variant; stably expressed in YB2/0 cells (p4178/p2402); EU numbering; also called A330I/I332E (YB2/0 cell-derived); A330I/I332E from YB2/0 cells; copies: 2 + 2) heavy: not shown light: DIQMTQSPSSLSASVGDRVTITCKASQDIRKYLNWYQQKPGKAPKLLIYYATSLADGVPSRFSGSGSGTDYTFTISSLQPEDIATYYCLQHGESPYTFGQGTKLEITRTVAAPSVFIFPPSDEQLKSGTASVVCLLNNFYPREAKVQWKVDNALQSGNSQESVTEQDSKDSTYSLSSTLTLSKADYEKHKVYACEVTHQGLSSPVTKSFNRGEC
37000 | 450 | 7000 | 8000 | 15 | 25000 | YB2/0-CNTO 860 A330I (antibody, IgG1, N-linked glycan at heavy chain Asn297 (YB2/0-type, low fucose); not carried by the letters, IgG1/kappa Fc variant; stably expressed in YB2/0 cells (p4177/p2402); EU numbering; also called A330I (YB2/0 cell-derived); A330I mutant expressed in YB2/0 cells; copies: 2 + 2) heavy: not shown light: DIQMTQSPSSLSASVGDRVTITCKASQDIRKYLNWYQQKPGKAPKLLIYYATSLADGVPSRFSGSGSGTDYTFTISSLQPEDIATYYCLQHGESPYTFGQGTKLEITRTVAAPSVFIFPPSDEQLKSGTASVVCLLNNFYPREAKVQWKVDNALQSGNSQESVTEQDSKDSTYSLSSTLTLSKADYEKHKVYACEVTHQGLSSPVTKSFNRGEC
4500 | 900 | 600 | 800 | 18 | 3000 | CHO-CNTO 860 I332E/A330I (antibody, human IgG1, kappa, Heavy chain N297 carries the CHO-type N-linked glycan (about 95% fucosylated); not carried by the letters., IgG1/kappa Fc variant; transiently expressed in CHO cells (p4185/p4146); EU numbering; also called A330I/I332E (CHO cell-derived); A330I/I332E variant from CHO cells; copies: 2 + 2) heavy: not shown light: DIQMTQSPSSLSASVGDRVTITCKASQDIRKYLNWYQQKPGKAPKLLIYYATSLADGVPSRFSGSGSGTDYTFTISSLQPEDIATYYCLQHGESPYTFGQGTKLEITRTVAAPSVFIFPPSDEQLKSGTASVVCLLNNFYPREAKVQWKVDNALQSGNSQESVTEQDSKDSTYSLSSTLTLSKADYEKHKVYACEVTHQGLSSPVTKSFNRGEC
105 | 76 | 1500 | 1600 | 13 | 4000 | CHO-CNTO 860 I332E (antibody, N-linked glycan at Asn297 of the heavy chain (CHO-type, highly fucosylated); not carried by the letters, IgG1/kappa Fc variant; transiently expressed in CHO cells (p4157/p4146); also called I332E (CHO cell-derived); I332E from CHO cells; copies: 2 + 2) heavy: not shown light: DIQMTQSPSSLSASVGDRVTITCKASQDIRKYLNWYQQKPGKAPKLLIYYATSLADGVPSRFSGSGSGTDYTFTISSLQPEDIATYYCLQHGESPYTFGQGTKLEITRTVAAPSVFIFPPSDEQLKSGTASVVCLLNNFYPREAKVQWKVDNALQSGNSQESVTEQDSKDSTYSLSSTLTLSKADYEKHKVYACEVTHQGLSSPVTKSFNRGEC
75000 | 2250 | 8000 | 12000 | 130 | 90000 | CHO-CNTO 860 A330I (antibody, IgG1, N-linked glycan at Asn297 of the heavy chain (CHO-type, highly fucosylated); not carried by the letters, IgG1/kappa Fc variant; EU numbering; also called A330I (CHO cell-derived); copies: 2 + 2) heavy: not shown light: DIQMTQSPSSLSASVGDRVTITCKASQDIRKYLNWYQQKPGKAPKLLIYYATSLADGVPSRFSGSGSGTDYTFTISSLQPEDIATYYCLQHGESPYTFGQGTKLEITRTVAAPSVFIFPPSDEQLKSGTASVVCLLNNFYPREAKVQWKVDNALQSGNSQESVTEQDSKDSTYSLSSTLTLSKADYEKHKVYACEVTHQGLSSPVTKSFNRGEC
27 | 75 | 900 | 1100 | 11 | 1700 | CHO-CNTO 860 I332E/S239D (antibody, human IgG1, kappa, Heavy chain N297 carries the CHO-type N-linked glycan (about 95% fucosylated); not carried by the letters., IgG1/kappa Fc variant; transiently expressed in CHO cells (p4186/p4146); EU numbering; also called S239D/I332E (CHO cell-derived); copies: 2 + 2) heavy: not shown light: DIQMTQSPSSLSASVGDRVTITCKASQDIRKYLNWYQQKPGKAPKLLIYYATSLADGVPSRFSGSGSGTDYTFTISSLQPEDIATYYCLQHGESPYTFGQGTKLEITRTVAAPSVFIFPPSDEQLKSGTASVVCLLNNFYPREAKVQWKVDNALQSGNSQESVTEQDSKDSTYSLSSTLTLSKADYEKHKVYACEVTHQGLSSPVTKSFNRGEC
280 | 142 | 2700 | 4000 | 100 | 5000 | CHO-CNTO 860 A330Y (antibody, human IgG1, kappa, N-linked glycan at Asn297 of the heavy chain (CHO-type, highly fucosylated); not carried by the letters, IgG1/kappa Fc variant; transiently expressed in CHO cells (p4183/p4146); EU numbering; also called A330Y (CHO cell-derived); copies: 2 + 2) heavy: not shown light: DIQMTQSPSSLSASVGDRVTITCKASQDIRKYLNWYQQKPGKAPKLLIYYATSLADGVPSRFSGSGSGTDYTFTISSLQPEDIATYYCLQHGESPYTFGQGTKLEITRTVAAPSVFIFPPSDEQLKSGTASVVCLLNNFYPREAKVQWKVDNALQSGNSQESVTEQDSKDSTYSLSSTLTLSKADYEKHKVYACEVTHQGLSSPVTKSFNRGEC
